Laboratory results as given in patent US20200095339A1 (IMMUNEONCO BIOPHARMACEUTICALS SHANGHAI, published 2020).

T1: human CD20 (human, UniProt P11836 1-297)
T1 sequence (looked up): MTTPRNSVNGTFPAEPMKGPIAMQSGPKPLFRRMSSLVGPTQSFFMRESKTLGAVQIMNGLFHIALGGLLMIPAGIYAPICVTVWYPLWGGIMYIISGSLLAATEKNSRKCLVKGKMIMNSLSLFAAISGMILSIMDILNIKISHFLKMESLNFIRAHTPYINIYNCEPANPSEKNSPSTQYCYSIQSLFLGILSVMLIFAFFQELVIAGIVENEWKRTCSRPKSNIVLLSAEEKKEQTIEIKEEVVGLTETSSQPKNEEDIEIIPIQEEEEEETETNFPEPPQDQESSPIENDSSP


Tests used:
human CD20 [1] = target: T1, human CD20; assay: cell-based or functional assay
human CD20 [2] = target: T1, human CD20; assay: flow cytometry on Raji-CD47KO cells (CD20+CD47-)
human CD47 [3] = target: T2, human CD47 (human, UniProt Q08722 19-323); assay: FACS competition on Jurkat cells against 25 nM labelled SIRPα-Fc. Number printed in the IC50 table although the Rituximab curve shows no inhibition (see non_binding). The table prints no unit, nM is taken from the concentration axis
T2 construct: whole, on cells; Endogenous CD47 on tumor cell lines
Experimental: (§1) The mixture was cultured at RT for 30 minutes, and then incubated with Jurkat cells at RT for 1 hour. After washes, the cells was added with fluorescence labeled streptavidin (FITC-Strep) and then incubated at RT for 1 hour.

human CD47 [4] = target: T2, human CD47; assay: FACS competition on Jurkat cells; competitor 25 nM biotin-SIRPα-Fc, detected with FITC-streptavidin
Experimental: as §1

human CD47 [5] = target: T2, human CD47; assay: flow cytometry on Jurkat cells (CD20-CD47+)
human CD47 [6] = target: T2, human CD47; assay: cell-based or functional assay

ADCC EC50, Raji target cells, NK92MI-CD16a effector cells (human CD20 [1]) | ADCC EC50, Raji-CD47KO target cells, NK92MI-CD16a effector cells (human CD20 [1]) | EC50 (human CD20 [2]) | IC50 (human CD47 [3]) | CDC EC50, Raji target cells, rabbit complement (human CD20 [1]) | EC50 (human CD47 [4]) | EC50 (human CD47 [5]) | phagocytosis of HL-60 cells by mouse macrophage cell line Ana-1, EC50 (human CD47 [6]) | Binder
3.82 ng/mL | 1.13 ng/mL | 0.06 nM | 7.19 nM | – | – | – | – | Rituximab (antibody, V domains shown, Comparator antibody; also called Rituxan) VH: QVQLQQPGAELVKPGASVKMSCKASGYTFTSYNMHWVKQTPGRGLEWIGAIYPGNGDTSYNQKFKGKATLTADKSSSTAYMQLSSLTSEDSAVYYCARSTYYGGDWYFNVWGAGTTVTVSA VL: QIVLSQSPAILSASPGEKVTMTCRASSSVSYIHWFQQKPGSSPKPWIYATSNLASGVPVRFSGSGSGTSYSLTISRVEAEDAATYYCQQWTSNPPTFGGGTKLEIK
0.14 ng/mL | 0.14 ng/mL | 0.08 nM | – | 11 nM | 476 nM | 2.72 nM | – | CD20mAb-SD1 (bispecific antibody, human IgG1, kappa, Four chains, two heavy and two light, joined by disulfide bonds; Expressed in CHO cells; also called recombinant bi-functional fusion protein; CD20Ab-SD1) heavy: not shown light: QIVLSQSPAILSASPGEKVTMTCRASSSVSYIHWFQQKPGSSPKPWIYATSNLASGVPVRFSGSGSGTSYSLTISRVEAEDAATYYCQQWTSNPPTFGGGTKHELKRTVAAPSVFIFPPSDEQLKSGTASVVCLLNNFYPREAKVQWKVDNALQSGNSQESVTEQDSKDSTYSLSSTLTLSKADYEKHKVYACEVTHQGLSSPVTKSFNRGEC
0.15 ng/mL | 0.1 ng/mL | 0.4 nM | – | 3.36 nM | 19.7 nM | 0.09 nM | 300 ng/mL | SD1-CD20mAb (bispecific antibody, human IgG1, kappa, Four chains, two heavy and two light, joined by disulfide bonds; Expressed in CHO cells; also called recombinant bi-functional fusion protein) heavy: not shown light: QIVLSQSPAILSASPGEKVTMTCRASSSVSYIHWFQQKPGSSPKPWIYATSNLASGVPVRFSGSGSGTSYSLTISRVEAEDAATYYCQQWTSNPPTFGGGTKHELKRTVAAPSVFIFPPSDEQLKSGTASVVCLLNNFYPREAKVQWKVDNALQSGNSQESVTEQDSKDSTYSLSSTLTLSKADYEKHKVYACEVTHQGLSSPVTKSFNRGEC
